In patent publication US11856945B2, “Methods and systems for preparing and preserving a biological sample” (Washington University, priority 2017, dated 2024):

Key:
[1] = Preservation of NGAL in patient urine dried on paper (ELISA); assay type: physicochemical; conditions: three acute kidney injury patients, 1 week
Procedure: Following the successful optimization of ZIF-8 encapsulation using spiked artificial urine samples, the applicability of this technique to patient urine samples was evaluated. Three acute kidney injury patients with different urinary NGAL levels (Patient #1: 32.8 ng/ml, Patient #2: 17.4 ng/ml and Patient #3: 97.5 ng/ml, quantified by ELISA and confirmed by Western blotting, FIG. 15) were selected. […] Thus, protein biomarkers in the mixture are not subjected to extremely low or high pH (Table 2). To assess the preservation efficacy of NGAL, the urine samples with and without ZIF-8 encapsulation dried on paper substrates were stored at 25 or 40° C. for 1 week. NGAL concentration in the eluate was quantified using ELISA. […] Frozen liquid sample (−20° C.) was used as a reference. POSs represent 3 distinct Positive Control signal intensities (POS1>POS2>POS3). Results are the mean and standard deviation from two parallel dots for each biomarker. The frozen-liquid samples stored at −20° C. were employed as the reference.
(§1) Sample preparation. NGAL-spiked artificial urine (50 μg/ml of NGAL, 25 μl) or patient urine (25 μl) was first mixed with 2-methylimidazole aqueous solution (12.5 μl) and then zinc acetate dihydrate aqueous solution (12.5 μl). The final concentrations of 2-methylimidazole after mixing were 320 mM, 160 mM, 80 mM and 40 mM. […]

[2] = Preservation of NGAL spiked in artificial urine dried on paper (ELISA); assay type: physicochemical
Procedure: The efficacy was evaluated of ZIF-8 encapsulation in preserving NGAL upon exposure to harsh conditions (such as elevated temperatures) that would normally lead to protein denaturation and loss of biospecimen integrity. NGAL-spiked artificial urine dried on paper substrates, both with and without ZIF-8 encapsulation, was stored at 25, 40, or 60° C. for 1 week. Before analysis, the optimized elution buffer (0.2 M phosphate buffer at pH 5.6+Tween 20+EDTA, see Table 1 and FIGS. 8 and 9 for details) was used to elute NGAL from the paper substrates.
The slightly acidic environment (at or below pH 6) was employed to dissociate ZIF-8 crystals and release encapsulated NGAL via breaking coordination between the zinc ions and imidazolate. ZIF-8 encapsulated NGAL dried on the paper was almost fully eluted (>95%) whereas NGAL alone dried on the paper was only partially eluted (˜75%) (FIG. 9). It is important to note that ZIF-8 encapsulation prevented irreversible adsorption of proteins on the cellulose fibers by creating a crystal interface between the protein and paper substrate. […] NGAL concentration was tested by ELISA when NGAL was spiked in four different media. The same concentration of NGAL in phosphate-buffered saline (PBS) at pH 7.4 was set as the reference (100%). […] After storage and elution, the concentration of NGAL in the eluate was quantified using the NGAL sandwich ELISA. The preservation efficacy (preservation %) was calculated by comparing the NGAL amount in the eluate to the spiked NGAL amount in the artificial urine. […] NGAL added on a paper card was stored at 25, 40 or 60° C. for one week. […] The eluates were obtained by eluting paper cards dried with NGAL-spiked artificial urine with or without MOF encapsulation after storage at 40° C. for 1 week.
The preservation efficacy critically depended on the concentrations of 2-methylimidazole and zinc acetate (FIG. 14). […] The maximal preservation percentage was obtained using 160 mM of 2-methylimidazole and 40 mM of zinc acetate. […] A low preservation was noted upon using 40 mM 2-methylimidazole with 10 mM zinc acetate, which is attributed to incomplete encapsulation of NGAL under this condition (˜70% encapsulation of NGAL using 40 mM 2-methylimidazole with 10 mM zinc acetate, FIG. 7). Subsequently, using the optimal ZIF-8 precursor concentration (160 mM 2-methylimidazole and 40 mM zinc acetate), the storage time was extended under different temperatures up to 4 weeks (FIG. 11B). […] Different dried paper strips were sampled at selected time points (2, 3 or 4 weeks) to monitor possible changes in NGAL preservation. With ZIF-8 encapsulation, over 70% of NGAL on paper was preserved up to 4 weeks (the maximum time tested) at all three temperatures (25, 40 and 60° C.), as opposed to 20% preservation on samples without ZIF-8 encapsulation. […] Remarkably, 70% of NGAL on paper could be preserved within 4 weeks at 60° C., which represented an extremely harsh storage condition (a surrogate for long-term storage stability at room temperature).
as §1, with “mM. The final concentrations of zinc acetate dihydrate after mixing were 80 mM, 40 mM, 20 mM and 10 mM.” for “mM.”

B1: neutrophil gelatinase-associated lipocalin (protein, UniProt P80188 21-198, looked up)
Neutrophil …: QDSTSDLIPAPPLSKVPLQQNFQDNQFQGKWYVVGLAGNAILREDKDPQKMYATIYELKEDKSYNVTSVLFRKKKCDYWIRTFVPGCQPGEFTLGNIKSYPGLTSYLVRVVSTNYNQHAMVFFKKVSQNREYFKITLYGRTKELTSELKENFIRFSKSLGLPENHIVFPVPIDQCIDG
notes: urinary biomarker for acute kidney injury; human recombinant
With B1 the “NGAL preservation in patient urine” value ([1]; 25° C.) was “less than 40%”, the “NGAL preservation in patient urine” value ([1]; 40° C.) was “less than 40%” and the NGAL preservation ([2]; paper card, 25° C., 1 week) was “less than 30%”. For the same molecule, the NGAL preservation ([2]; paper card, 40° C., 1 week) was “less than 30%”, the NGAL preservation ([2]; paper, 25° C., up to 4 weeks, 160 mM 2-methylimidazole and 40 mM zinc acetate) was 20% and the NGAL preservation ([2]; paper, 40° C., up to 4 weeks, 160 mM 2-methylimidazole and 40 mM zinc acetate) was 20%. For the same molecule, the NGAL preservation ([2]; paper, 60° C., up to 4 weeks, 160 mM 2-methylimidazole and 40 mM zinc acetate) was 20%.
